Results reported in article PMC9741609, “A widely distributed family of eukaryotic and bacterial deubiquitinases related to herpesviral large tegument proteins” (Nature Communications, 2022).

Target: T1, ubiquitin-PA (C-terminally propargylated ubiquitin 1-75) (human, UniProt P0CG48 1-75, C-terminal propargylamide (PA))
T1 construct: also called Ub-PA; wildtype Ub-PA; not shown: intein (from the vector pTXB1), C-terminal, cleaved
Test: crystal structure; covalent complex: 1.2 mM Wc-VTD1 incubated with 760 µM ubiquitin-PA for 18 h at 4 °C, unreacted proteins removed by SEC; crystals in 0.1 M BisTris propane pH 7.0, 2.0 M ammonium citrate tribasic at 20 °C
Conditions: both partners purified

B1: Wc-VTD1 catalytic domain (aa279-494) (enzyme)
chain: KMPEEEQDSLAAFSRIEANITQYDPLLDNAGKSACTCICLKAAEMLLEASPDQVNAGLIDDILVEGVADYNRFKVGGVVEHTSVENYELNTFELKRLEFRDVDNPFSAEGNPYAGTLDSFAKMMEKASDSKDLPKPVALVMTKSNMTITIVIRPDGKYWLFDPHGTNGKGAYIESCNTDELIKKIKEIFPKTSYPGMTEDENLGFNSFEAYAVRRS
notes: also called wcw_1294; Waddlia VTD1; source: E. coli Rosetta (DE3) pLysS, purified (HisTrap, SEC)
  binding result: binds
